Key:
[1] = target: T1, GalOx (galactose 6-oxidase from Fusarium oxysporum G12) (Fusarium oxysporum, UniProt V5NQ89); assay: ABTS/horseradish peroxidase coupled assay, […] nm, Michaelis-Menten fit; details: apparent constant; co-substrate O2 (air); 20 mM potassium phosphate pH 7.0, 30°C; Cu2+-activated enzyme
T1 construct: gene gao

[2] = system: CO[C@@H]1O[C@H](CO)[C@H](O)[C@H](O)[C@H]1O; assay: purified protein; details: apparent constant, co-substrate O2 (air), 20 mM potassium phosphate pH 7.0, 30°C, Cu2+-activated enzyme
[3] = system: CO[C@H]1O[C@H](CO)[C@H](O)[C@H](O)[C@H]1O; assay: purified protein; details: apparent constant, co-substrate O2 (air), 20 mM potassium phosphate pH 7.0, 30°C, Cu2+-activated enzyme
[4] = system: OC[C@H]1O[C@H](OC[C@H]2O[C@H](O[C@]3(CO)O[C@H](CO)[C@@H](O)[C@@H]3O)[C@H](O)[C@@H](O)[C@@H]2O)[C@H](O)[C@@H](O)[C@H]1O; assay: purified protein; details: apparent constant, co-substrate O2 (air), 20 mM potassium phosphate pH 7.0, 30°C, Cu2+-activated enzyme

T1 sequence (V5NQ89 40-681 limits assumed): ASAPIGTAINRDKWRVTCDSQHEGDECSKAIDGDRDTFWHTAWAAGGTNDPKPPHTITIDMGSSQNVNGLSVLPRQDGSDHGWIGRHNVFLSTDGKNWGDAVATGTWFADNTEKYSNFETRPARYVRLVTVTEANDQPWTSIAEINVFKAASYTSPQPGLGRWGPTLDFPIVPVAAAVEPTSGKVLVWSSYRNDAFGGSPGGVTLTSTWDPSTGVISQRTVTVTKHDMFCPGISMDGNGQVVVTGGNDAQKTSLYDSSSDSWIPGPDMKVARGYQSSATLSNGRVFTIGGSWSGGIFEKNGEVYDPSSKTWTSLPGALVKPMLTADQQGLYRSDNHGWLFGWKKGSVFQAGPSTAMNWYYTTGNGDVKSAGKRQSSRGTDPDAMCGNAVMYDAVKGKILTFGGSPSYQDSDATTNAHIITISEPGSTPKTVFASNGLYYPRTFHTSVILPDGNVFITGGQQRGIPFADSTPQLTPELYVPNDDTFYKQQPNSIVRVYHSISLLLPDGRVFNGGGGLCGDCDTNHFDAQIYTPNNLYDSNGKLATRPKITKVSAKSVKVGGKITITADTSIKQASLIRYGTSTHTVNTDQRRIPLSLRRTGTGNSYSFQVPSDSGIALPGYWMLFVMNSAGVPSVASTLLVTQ

| Compound | Km [1] [mM] | Km [2] [mM] | Vmax [2] [µmol/min/mg] | kcat [2] [s⁻¹] | kcat/Km [2] [M⁻¹ s⁻¹] | Km [3] [mM] | Vmax [3] [µmol/min/mg] | kcat [3] [s⁻¹] | kcat/Km [3] [M⁻¹ s⁻¹] | Km [4] [mM] | Vmax [4] [µmol/min/mg] | kcat [4] [s⁻¹] | kcat/Km [4] [M⁻¹ s⁻¹] |
| --- | --- | --- | --- | --- | --- | --- | --- | --- | --- | --- | --- | --- | --- |
| OC[C@H]1OC(O)[C@H](O)[C@@H](O)[C@H]1O (stereo partly drawn) [D-galactose] | 47 |  |  |  |  |  |  |  |  |  |  |  |  |
| GalOx (galactose 6-oxidase from Fusarium oxysporum G12) (Fusarium oxysporum) |  | 45 | 81 | 99 | 2200 | 41 | 47 | 57 | 1400 | 23 | 23 | 28 | 1200 |

From article PMC4072685, “Galactose Oxidase from Fusarium oxysporum - Expression in E. coli and P. pastoris and Biochemical Characterization” (PLoS ONE, 2014)
